Biological target: Insulin (Sigma-Aldrich, 19278) (Homo sapiens (Human)) (UniProt P01308)
Experiment: NS-ELISA, plate coated with insulin, antibody at 100 nM

Chain of Insulin (Sigma-Aldrich, 19278) (Homo sapiens (Human)) (P01308 25-54 limits assumed, chain 1 of 2): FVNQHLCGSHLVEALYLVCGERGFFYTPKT
Chain of Insulin (Sigma-Aldrich, 19278) (Homo sapiens (Human)) (P01308 90-110 limits assumed, chain 2 of 2): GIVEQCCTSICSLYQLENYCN

| NS-ELISA binding score (ratio to buffer well) | Binder |
| --- | --- |
| 1.78 | v36180 (M3-H1L1) (antibody, human IgG1, kappa, V domains shown) VH: EVQLVQSGAEVKKPGSSVKVSCKASGYTFTDYEMHWVRQAPGQGLEWIGAIDPETGDTAYNQKFKGRATLTADKSTSTAYMELSSLRSEDTAVYYCTRYFSFAYWGQGTLVTVSS VL: DVQMTQSPSSVSASVGDRVTITCRSSQSLRHSNGNTYLQWYQQKPGKAPKLLIYKVSNRFSGVPSRFSGSGSGTDFTLTISSLQPEDFATYFCYQSKHVPYTFGQGTKVEIKR |
| 0.83 | v37575 (codrituzumab) (antibody, human IgG1, kappa, V domains shown) VH: QVQLVQSGAEVKKPGASVKVSCKASGYTFTDYEMHWVRQAPGQGLEWMGALDPKTGDTAYSQKFKGRVTLTADKSTSTAYMELSSLTSEDTAVYYCTRFYSYTYWGQGTLVTVSS VL: DVVMTQSPLSLPVTPGEPASISCRSSQSLVHSNRNTYLHWYLQKPGQSPQLLIYKVSNRFSGVPDRFSGSGSGTDFTLKISRVEAEDVGVYYCSQNTHVPPTFGQGTKLEIKR |

Source: patent US20250295799A1, “ANTIBODY-DRUG CONJUGATES TARGETING GLYPICAN-3 AND METHODS OF USE” (Zymeworks BC Inc., priority 2022, published 2025)
